Test results: patent US20210032312A1 (Janssen / Centocor, published 2021)
Where a chain is given by its changes, count along the chain named.

B1: P282DR9P1359_E2 (designed binder)
chain: LPAPKNLVVSRVTEDSARLSWTAPDAAFDSFNIFYPEIVTWGEAIVLTVPGSERSYDLTGLKPGTEYWVNIVGVKGGDNSWPLSAIFTT
notes: FN3 domain
B2: P282DR9P1359_F11 (designed binder)
chain: B1 chain with N32D, I38L, V39P, T40I, W41H, V72T, N79F
notes: FN3 domain
B3: P282DR9P1359_F2 (designed binder)
chain: LPAPKNLVVSRVTEDSARLSWTAPDAAFDSFNIAYPEALHPGYGEAIVLTVPGSERSYDLTGLKPGTEYWVIIGGVKGGQKSWPLSAIFTTGGHHHDHH
notes: FN3 domain
B4: P282DR9P1359_G4 (designed binder)
chain: LPAPKNLVVSRVTEDSARLSWTAPDAAFDSFEIAYPEWPPPGEAIVLTVPGSERSYDLTGLKPGPEYFVVIQGVKGGDPSFPLSAIFTTGGNHHHHH
notes: FN3 domain
B5: P282DR9P1359_G7 (designed binder)
chain: LPAPKNLVVSRVTEDSARLSWTAPDAAFDSFAITYIEKEHIEDGEAIVLTVPGSERSYDLTGLKPGTEYWVPIWGVKGGANSWPLSAIFTT
notes: FN3 domain
B6: P282DR9P1359_H5 (designed binder)
chain: LPAPKNLVVSRVTEDSARLSWTAPDAAFDSFNIAYPEALHPGYGEAIVLTVPGSERSYDLTGLKPGTEYFVVIYGVKGGTNSEPLSAIFTT
notes: FN3 domain
B7: P282FR9P1361_A5 (designed binder)
chain: LPAPKNLVVSRVTEDSARLSWTAPDAAFDSFGILYYEPVDSGEAITLPVPGSERSYDLTGLKPGTEYWVVITGVKGGAPSTPLGAIFTT
notes: FN3 domain
B8: P282ER9P1360_A9 (designed binder)
chain: B7 chain with V49I
notes: FN3 domain
B9: P282ER9P1360_C1 (designed binder)
chain: B7 chain with A23T
notes: FN3 domain
B10: P282ER9P1360_C4 (designed binder)
chain: B7 chain with L34T, V39N, D40H, S41G, T46S, P48S, L58P
notes: FN3 domain
B11: P282ER9P1360_C6 (designed binder)
chain: B7 chain with P2S, V49I
notes: FN3 domain
B12: P282ER9P1360_C8 (designed binder)
chain: B7 chain with A85T
notes: FN3 domain
B13: P282ER9P1360_D11 (designed binder)
chain: B7 chain with W68F, V70I, T72V, A78Y, T81I, I86A
notes: FN3 domain
B14: P282ER9P1360_E4 (designed binder)
chain: B7 chain with P50L
notes: FN3 domain
B15: P282ER9P1360_G7 (designed binder)
chain: B7 chain with F87L
notes: FN3 domain
B16: P282ER9P1360_F11 (designed binder)
chain: LPAPKNLVVSRVTEDSARLSWIAPDAAFDSFSIAYVEAELVGEAIQLVVPGSERSYDLTGLKPGTEYWVVILGVKGGNPSNPLGASFTT
notes: FN3 domain
B17: P282ER9P1360_H3 (designed binder)
chain: B16 chain with I22T
notes: FN3 domain
B18: P282ER9P1360_G10 (designed binder)
chain: LPAPKNLVVSRVTEDSARLSWTAPDAAFDSFAIWYVEQHPFGEAIPLFVPGSERSYDLTGLKPGTEYTVGIRGVKGGNFSTPLIAHFTT
notes: FN3 domain
B19: P282ER9P1360_H10 (designed binder)
chain: LPAPKNLVVSRVTEDSARLSWTAPDAAFDSFEIYYPEWPFAGEAIGLPVPGSERSYDLTGLKPGTEYFVVIYGVKGGELSEPLTAQFTT
notes: FN3 domain
B20: P282ER9P1360_H2 (designed binder)
chain: LPAPKNLVVSRVTEDSARLSWTAPDAAFDSFSIAYVEAELVGEAIQLVVPGSERSYDLTGLKPGTEYWVVILGVKGGNPSNPLGASFTTT
notes: FN3 domain
B21: P282FR9P1361_H5 (designed binder)
chain: LPAPKNLVVSRVTEDSARLSWTAPDAAFDSFDIWYAEYGYPGEAIVLTVPGSERSYDLTGLKPGTEYDVAISGVKGGPRSYPLSAIFTT
notes: FN3 domain
B22: P282FR9P1361_A3 (designed binder)
chain: B21 chain with S72V, P78N
notes: FN3 domain
B23: P282FR9P1361_C7 (designed binder)
chain: B21 chain with D32G, A36H, Y40G, P41D, S72W, P78D, R79V
notes: FN3 domain
B24: P282FR9P1361_D3 (designed binder)
chain: B21 chain with K62N
notes: FN3 domain
B25: P282FR9P1361_F1 (designed binder)
chain: B21 chain with D32G, P41S, S72W, P78V
notes: FN3 domain
B26: P282FR9P1361_F2 (designed binder)
chain: B21 chain with V74I
notes: FN3 domain
B27: P282FR9P1361_F3 (designed binder)
chain: B21 chain with V74A
notes: FN3 domain

Molecular target: T1, cynomolgus monkey CD8A on primary cynomolgus monkey CD8+ T cells (cynomolgus monkey, UniProt P01732 23-235 (human entry))
T1 construct: also called Cyno CD8alpha
T1 sequence (P01732 other isoform, or with tags, fused parts or gaps limits assumed): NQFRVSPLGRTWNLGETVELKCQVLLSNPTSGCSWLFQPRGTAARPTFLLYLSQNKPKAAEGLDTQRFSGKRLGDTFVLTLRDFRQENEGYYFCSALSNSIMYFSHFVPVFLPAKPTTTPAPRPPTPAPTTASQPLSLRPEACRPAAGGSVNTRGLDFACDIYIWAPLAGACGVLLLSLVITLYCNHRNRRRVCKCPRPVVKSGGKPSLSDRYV
Test: flow cytometry, cyno CD8+ T cells, 2 uM FN3

Row | Binder | Cyno T-cell Binding 2 uM (MFI)
1 | B1 | 77700 MFI
2 | B2 | 86700 MFI
3 | B3 | 38200 MFI
4 | B4 | 78600 MFI
5 | B5 | 69100 MFI
6 | B6 | 2250 MFI
7 | B7 | 63500 MFI
8 | B8 | 64700 MFI
9 | B9 | 64800 MFI
10 | B10 | 33400 MFI
11 | B11 | 52800 MFI
12 | B12 | 66800 MFI
13 | B13 | 76600 MFI
14 | B14 | 60800 MFI
15 | B15 | 69700 MFI
16 | B16 | 48700 MFI
17 | B17 | 66000 MFI
18 | B18 | 62700 MFI
19 | B19 | 27100 MFI
20 | B20 | 44600 MFI
21 | B21 | 11800 MFI
22 | B22 | 8480 MFI
23 | B23 | 11600 MFI
24 | B24 | 14800 MFI
25 | B25 | 9870 MFI
26 | B26 | 10900 MFI
27 | B27 | 9710 MFI

Molecular target: T2, human CD8 alpha (CD8A) on primary human CD8+ T cells (human, UniProt P01732 22-235)
T2 construct: whole, on cells; also called hCD8A
T2 sequence (P01732 22-235): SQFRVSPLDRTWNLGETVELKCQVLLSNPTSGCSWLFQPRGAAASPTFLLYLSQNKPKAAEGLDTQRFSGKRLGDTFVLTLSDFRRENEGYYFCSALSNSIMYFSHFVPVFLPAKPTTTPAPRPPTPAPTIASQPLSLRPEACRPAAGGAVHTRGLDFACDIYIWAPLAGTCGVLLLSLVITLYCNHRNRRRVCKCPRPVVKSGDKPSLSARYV
Test: flow cytometry, human CD8+ T cells, 2 uM FN3

Row | Binder | Human T-cell Binding 2 uM (MFI)
28 | B1 | 28500 MFI
29 | B2 | 35600 MFI
30 | B3 | 18400 MFI
31 | B4 | 26600 MFI
32 | B5 | 37600 MFI
33 | B6 | 919 MFI
34 | B7 | 32800 MFI
35 | B8 | 23400 MFI
36 | B9 | 25900 MFI
37 | B10 | 19200 MFI
38 | B11 | 25900 MFI
39 | B12 | 30600 MFI
40 | B13 | 36800 MFI
41 | B14 | 26900 MFI
42 | B15 | 25400 MFI
43 | B16 | 22400 MFI
44 | B17 | 20000 MFI
45 | B18 | 27000 MFI
46 | B19 | 2510 MFI
47 | B20 | 15200 MFI
48 | B21 | 5730 MFI
49 | B22 | 7670 MFI
50 | B23 | 8540 MFI
51 | B24 | 6880 MFI
52 | B25 | 5500 MFI
53 | B26 | 4610 MFI
54 | B27 | 5160 MFI

Molecular target: T1, cynomolgus monkey CD8A on primary …
Test: flow cytometry, cyno CD8+ T cells, 0.2 uM FN3

Row | Binder | Cyno T-cell Binding 0.2 uM (MFI)
55 | B1 | 10900 MFI
56 | B2 | 16100 MFI
57 | B3 | 4030 MFI
58 | B4 | 6010 MFI
59 | B5 | 8770 MFI
60 | B6 | 500 MFI
61 | B7 | 8110 MFI
62 | B8 | 8730 MFI
63 | B9 | 9680 MFI
64 | B10 | 3900 MFI
65 | B11 | 7580 MFI
66 | B12 | 10200 MFI
67 | B13 | 1940 MFI
68 | B14 | 6870 MFI
69 | B15 | 9920 MFI
70 | B16 | 4410 MFI
71 | B17 | 6440 MFI
72 | B18 | 22600 MFI
73 | B19 | 1890 MFI
74 | B20 | 4540 MFI
75 | B21 | 637 MFI
76 | B22 | 740 MFI
77 | B23 | 896 MFI
78 | B24 | 764 MFI
79 | B25 | 1390 MFI
80 | B26 | 462 MFI
81 | B27 | 513 MFI

Molecular target: T3, In house human CD8A-Fc (human, UniProt P01732 22-182, limits assumed)
T3 construct: Captured on goat anti-human Fc on a ProteOn GLC chip; also called hCD8A-Fc; recombinant human CD8 alpha; not shown: linker with flag (and polyhistidine) tag and Fc of human IgG1
T3 sequence (P01732 22-182 limits assumed): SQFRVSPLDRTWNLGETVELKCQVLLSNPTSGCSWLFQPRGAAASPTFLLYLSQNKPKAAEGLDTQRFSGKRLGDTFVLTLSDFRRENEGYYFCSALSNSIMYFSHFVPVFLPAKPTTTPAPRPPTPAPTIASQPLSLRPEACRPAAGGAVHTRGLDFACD
Test: SPR (ProteOn), captured hCD8A-Fc

Row | Binder | koff
82 | B1 | 0.00206 s⁻¹
83 | B2 | 0.000554 s⁻¹
84 | B3 | 0.000722 s⁻¹
85 | B4 | 0.000517 s⁻¹
86 | B5 | 0.000114 s⁻¹
87 | B6 | 0.00449 s⁻¹
88 | B7 | 0.000192 s⁻¹
89 | B8 | 0.000133 s⁻¹
90 | B9 | 0.000181 s⁻¹
91 | B10 | 0.00107 s⁻¹
92 | B11 | 0.000175 s⁻¹
93 | B12 | 0.000156 s⁻¹
94 | B13 | 0.000142 s⁻¹
95 | B14 | 0.000191 s⁻¹
96 | B15 | 0.000221 s⁻¹
97 | B16 | 0.000225 s⁻¹
98 | B17 | 0.000242 s⁻¹
99 | B18 | 0.00207 s⁻¹
100 | B19 | 0.00104 s⁻¹
101 | B20 | 0.000269 s⁻¹
102 | B21 | 0.00577 s⁻¹
103 | B22 | 0.000757 s⁻¹
104 | B23 | 0.00224 s⁻¹
105 | B24 | 0.00502 s⁻¹
106 | B25 | 0.00126 s⁻¹
107 | B26 | 0.00496 s⁻¹
108 | B27 | 0.0107 s⁻¹

Molecular target: T2, human CD8 alpha (CD8A) on primary human …
Test: flow cytometry, human CD8+ T cells, 0.2 uM FN3

Row | Binder | Human T-cell Binding 0.2 uM (MFI)
109 | B1 | 4820 MFI
110 | B2 | 6590 MFI
111 | B3 | 3050 MFI
112 | B4 | 2670 MFI
113 | B5 | 6130 MFI
114 | B6 | 278 MFI
115 | B7 | 5210 MFI
116 | B8 | 5340 MFI
117 | B9 | 6290 MFI
118 | B10 | 3460 MFI
119 | B11 | 5080 MFI
120 | B12 | 6010 MFI
121 | B13 | 3210 MFI
122 | B14 | 5030 MFI
123 | B15 | 5870 MFI
124 | B16 | 3860 MFI
125 | B17 | 4270 MFI
126 | B18 | 7050 MFI
127 | B19 | 506 MFI
128 | B20 | 3480 MFI
129 | B21 | 698 MFI
130 | B22 | 1660 MFI
131 | B23 | 1580 MFI
132 | B24 | 1030 MFI
133 | B25 | 801 MFI
134 | B26 | 498 MFI
135 | B27 | 674 MFI
